According to patent US20110142851A1 (EMERGENT PRODUCT DEVELOPMENT SEATTLE, published 2011):
Like-named read-outs stand apart in the source and are kept apart here.

T1: sIL6R Fc dimer (UniProt P08887 20-358, limits assumed)
T1 construct: not shown: Fc
T1 sequence (looked up): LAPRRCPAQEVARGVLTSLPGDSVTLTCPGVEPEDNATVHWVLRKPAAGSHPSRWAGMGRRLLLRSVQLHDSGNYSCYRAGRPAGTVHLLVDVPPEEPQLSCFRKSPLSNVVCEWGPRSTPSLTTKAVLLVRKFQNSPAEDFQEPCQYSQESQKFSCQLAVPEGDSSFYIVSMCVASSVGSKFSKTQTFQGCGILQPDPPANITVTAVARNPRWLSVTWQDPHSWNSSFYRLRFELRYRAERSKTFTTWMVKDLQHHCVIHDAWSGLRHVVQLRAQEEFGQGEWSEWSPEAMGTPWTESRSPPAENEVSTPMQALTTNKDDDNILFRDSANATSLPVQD

T2: hu HIL6 AFH monomer (human)
T2 chain: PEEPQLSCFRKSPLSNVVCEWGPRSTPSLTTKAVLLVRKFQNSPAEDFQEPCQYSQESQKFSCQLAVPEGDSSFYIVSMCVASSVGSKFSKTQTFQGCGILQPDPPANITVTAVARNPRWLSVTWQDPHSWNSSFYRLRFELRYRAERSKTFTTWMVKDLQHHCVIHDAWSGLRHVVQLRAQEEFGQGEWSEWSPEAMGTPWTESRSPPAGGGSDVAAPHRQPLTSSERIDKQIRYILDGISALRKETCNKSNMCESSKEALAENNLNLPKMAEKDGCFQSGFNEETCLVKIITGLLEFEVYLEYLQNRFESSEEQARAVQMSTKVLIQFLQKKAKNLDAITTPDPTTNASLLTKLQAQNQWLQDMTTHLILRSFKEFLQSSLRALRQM

T3: hu HIL6 Fc dimer (dimeric human HIL6/mouse IgG Fc fusion protein) (human)
T3 construct: also called human hyper-IL6 (IL6R-IL6-mIgG); dimeric HIL6
T3 chain: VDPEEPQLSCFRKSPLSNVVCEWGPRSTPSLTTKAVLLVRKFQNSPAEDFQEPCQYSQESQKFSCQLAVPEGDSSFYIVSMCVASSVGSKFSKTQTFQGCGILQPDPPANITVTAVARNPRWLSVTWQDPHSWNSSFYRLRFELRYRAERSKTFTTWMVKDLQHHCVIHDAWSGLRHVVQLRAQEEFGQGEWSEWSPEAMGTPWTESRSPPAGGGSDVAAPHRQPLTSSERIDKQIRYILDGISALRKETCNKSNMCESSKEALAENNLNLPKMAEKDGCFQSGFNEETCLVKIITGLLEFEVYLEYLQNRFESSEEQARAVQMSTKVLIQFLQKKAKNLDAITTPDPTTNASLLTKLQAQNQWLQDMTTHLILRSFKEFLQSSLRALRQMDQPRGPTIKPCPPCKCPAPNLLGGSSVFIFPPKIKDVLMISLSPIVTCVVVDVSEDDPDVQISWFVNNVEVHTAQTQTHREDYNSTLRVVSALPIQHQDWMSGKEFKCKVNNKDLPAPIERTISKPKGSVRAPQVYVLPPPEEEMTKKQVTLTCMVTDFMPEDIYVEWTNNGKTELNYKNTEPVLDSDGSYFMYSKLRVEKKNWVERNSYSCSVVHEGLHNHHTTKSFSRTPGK

T4: recombinant human soluble IL6 receptor (human, UniProt P08887 20-358)
T4 construct: also called sIL6R; sIL-6R
T4 sequence (looked up): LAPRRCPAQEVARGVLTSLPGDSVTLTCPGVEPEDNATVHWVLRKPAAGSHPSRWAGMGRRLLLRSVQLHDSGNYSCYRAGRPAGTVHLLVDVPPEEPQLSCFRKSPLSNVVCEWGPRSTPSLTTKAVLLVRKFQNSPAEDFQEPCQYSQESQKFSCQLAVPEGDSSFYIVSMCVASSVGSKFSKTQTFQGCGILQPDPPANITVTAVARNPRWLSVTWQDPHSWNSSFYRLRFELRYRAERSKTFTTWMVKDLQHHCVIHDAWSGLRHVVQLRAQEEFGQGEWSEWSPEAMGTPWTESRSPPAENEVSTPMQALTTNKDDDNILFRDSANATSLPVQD


Assays:
sIL6R Fc dimer [1] = target: T1, sIL6R Fc dimer; experiment: SPR Biacore T100, binder captured by anti-human Fc
Description: (§1) Binding affinities and kinetic rate constants of interaction of hyper-IL6 (HIL6; monomer or dimer), and its components IL6 and sIL6R, with different anti-HIL6 binding domains in scFv, SMIP, Xceptor and reverse Xceptor formats were determined using a Biacore® T100 instrument (GE Healthcare, Piscataway, N.J.).
(§2) Anti-HIL6 SMIPS, Xceptors, and reverse Xceptors were captured by a monoclonal mouse anti-human Fc, which was covalently conjugated to a carboxylmethyl dextran (CM4) surface via amines using N-ethyl-N′-(3-dimethylaminopropyl)-carbodiimide hydrochloride and N-hydroxysuccinimide. The unoccupied sites of the activated surface were blocked by ethanolamine. […] In every cycle, three different HIL6 binders were captured on flow cells 2, 3 and 4, while flow cell 1 was used as the reference cell. For each cycle, a single concentration of a single HIL6-related molecule was injected for 150 seconds at 35 microliters per minute, and then allowed to dissociate for 300 seconds. At the end of the cycle, the surface was regenerated gently using 3M MgCl₂, which dissociates protein bound to anti-hFc capture antibody. Multiple cycles were performed to study binding of monomeric or dimeric HIL6 at different concentrations, in the range of 0-100 nM, for each set of three HIL6 binders captured. […] The experiment was performed at 25° C. Signal associated with binding to the reference cell was used to subtract for bulk refractive changes and blank (buffer-only) injections were used to correct for drift and system noise. The kinetic parameters and affinities were determined using BIAevaluation software. Anti-HIL6 scFv molecules were analyzed in the reverse orientation using a dimeric human HIL6/mouse IgG Fc fusion protein captured by an immobilized rabbit polyclonal anti-mouse IgG Fc antibody on the surface and injecting different concentrations of scFv over the surface. For the HIL6 components IL6 (eBioscience, catalog no. 14-8069) and sIL6R, a single 100 nM injection was performed to obtain a qualitative assessment of binding.

hu HIL6 AFH monomer [2] = target: T2, hu HIL6 AFH monomer; experiment: SPR Biacore T100, binder captured by anti-human Fc
Description: as §1, §2

[3] = target: T3, hu HIL6 Fc dimer (dimeric human …); experiment: SPR Biacore T100, binder captured by anti-human Fc
Description: as §1, §2

recombinant human IL6 [4] = target: T5, recombinant human IL6 (human, UniProt P05231 30-212); experiment: SPR Biacore T100, binder captured by anti-human Fc
T5 construct: also called rhIL6; IL6 monomer
Description: as §1, §2

[5] = target: T4, recombinant human soluble IL6 receptor; experiment: ELISA, Xceptor captured by anti-human Fc
recombinant human TNF-α = target: T6, recombinant human TNF-α (human, UniProt P01375 77-233); experiment: ELISA, Xceptor captured by anti-human Fc
T6 construct: also called rhTNFα
T6 sequence (P01375 77-233 limits assumed): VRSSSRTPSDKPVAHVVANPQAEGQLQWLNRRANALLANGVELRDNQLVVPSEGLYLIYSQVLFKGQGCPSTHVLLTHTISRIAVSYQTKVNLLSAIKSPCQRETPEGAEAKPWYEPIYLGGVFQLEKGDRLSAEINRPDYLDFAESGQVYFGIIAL

[6] = target: T3, hu HIL6 Fc dimer (dimeric human …); experiment: SPR Biacore T100, binder captured by anti-human Fc
sIL6R Fc dimer [7] = target: T1, sIL6R Fc dimer; experiment: SPR Biacore T100, binder captured by anti-human Fc; remark: listed apart in the source
hu HIL6 AFH monomer [8] = target: T2, hu HIL6 AFH monomer; experiment: SPR Biacore T100, binder captured by anti-human Fc
recombinant human IL6 [9] = target: T5, recombinant human IL6; experiment: SPR Biacore T100, binder captured by anti-human Fc; remark: listed apart in the source

binding result (sIL6R Fc dimer [1])	Kd (hu HIL6 AFH monomer [2])	Kd [3]	binding result (recombinant human IL6 [4])	binding result [5]	binding result (recombinant human TNF-α)	Kd [6]	binding result (sIL6R Fc dimer [7])	Kd (hu HIL6 AFH monomer [8])	Kd (recombinant human IL6 [9])	Binder
no binding (tested: 100 nM)	180 nM									TRU(S6)-1029 (Fc fusion, SMIP (scFv - linker - CH2CH3)) EVQLLESGGGLVQPGGSLRLSCAASGFTFSSYWMHWVRQAPGKGLEWVSSIYPSGGSTEYADSVKGRFTISRDNSKNTLYLQMNSLRAEDTAVYYCAKGIWFDPWGQGTLVTVSSGGGGSGGGGSGGGGSQDIQMTQSPATLSASVGDRVTITCRSSQRISGYLNWYQQQPGKAPKLLIYAASTLQSGVPSRISGSGSGTDFSLIISSLQPEDVATYYCQQSYSPPFTFGGGTKVEIKTGEPKSSDKTHTCPPCPAPEAAGAPSVFLFPPKPKDTLMISRTPEVTCVVVDVSHEDPEVKFNWYVDGVEVHNAKTKPREEQYNSTYRVVSVLTVLHQDWLNGKAYACAVSNKALPAPIEKTISKAKGQPREPQVYTLPPSRDELTKNQVSLTCLVKGFYPSDIAVEWESNGQPENNYKTTPPVLDSDGSFFLYSKLTVDKSRWQQGNVFSCSVMHEALHNHYTQKSLSLSPGK
	2.6 nM	4.4 nM	no binding (tested: 100 nM)							TRU(S6)-1025 (Fc fusion, SMIP (scFv - linker - CH2CH3)) EVQLLESGGGLVQPGGSLRLSCAASGFTFSHYGMHWVRQAPGKGLEWVSSIYPGMTQYADSVKGRFTISRDNSKNTLYLQMNSLRAEDTAVYYCARDRGSGIDAFDIWGQGTMVTVSSGGGGSGGGGSGGGGSQSELTQPPSVSVSPGQTATVSCSGEKLGDRYAWWYQQKAGQSPVLVIYQDTKRPSGVPDRFSGSNSGTSASLVISGPQSEDEADYYCAAWDDSLKGVVFGGGSKLTVLTGEPKSSDKTHTCPPCPAPEAAGAPSVFLFPPKPKDTLMISRTPEVTCVVVDVSHEDPEVKFNWYVDGVEVHNAKTKPREEQYNSTYRVVSVLTVLHQDWLNGKAYACAVSNKALPAPIEKTISKAKGQPREPQVYTLPPSRDELTKNQVSLTCLVKGFYPSDIAVEWESNGQPENNYKTTPPVLDSDGSFFLYSKLTVDKSRWQQGNVFSCSVMHEALHNHYTQKSLSLSPGK
				no binding (tested: 75 pM sIL-6R)	binds					TRU(XT6)-1058 (Fc fusion, Xceptor, TNFRSF1B ectodomain N-terminal, anti-IL6xR domain C-terminal) LPAQVAFTPYAPEPGSTCRLREYYDQTAQMCCSKCSPGQHAKVFCTKTSDTVCDSCEDSTYTQLWNWVPECLSCGSRCSSDQVETQACTREQNRICTCRPGWYCALSKQEGCRLCAPLRKCRPGFGVARPGTETSDVVCKPCAPGTFSNTTSSTDICRPHQICNVVAIPGNASMDAVCTSTSPTRSMAPGAVHLPQPVSTRSQHTQPTPEPSTAPSTSFLLPMGPSPPAEGSTGDTGEPKSSDKTHTCPPCPAPEAAGAPSVFLFPPKPKDTLMISRTPEVTCVVVDVSHEDPEVKFNWYVDGVEVHNAKTKPREEQYNSTYRVVSVLTVLHQDWLNGKAYACAVSNKALPAPIEKTISKAKGQPREPQVYTLPPSRDELTKNQVSLTCLVKGFYPSDIAVEWESNGQPENNYKTTPPVLDSDGSFFLYSKLTVDKSRWQQGNVFSCSVMHEALHNHYTQKSLSLSPGQRHNNSSLNTRTQKARHSPNSEVQLLESGGGLVQPGGSLRLSCAASGFTFSMYTMHWVRQAPGKGLEWVSWISPSGGWTKYADSVKGRFTISRDNSKNTLYLQMNSLRAEDTAVYYCAVSPWGGPFDYWGQGTLVTVSSGGGGSGGGGSGGGGSQDIQMTQSPSTLSASVGDRVTITCRASQSISSWLAWYQQKPGKAPKLLIYKASTLESGVPSRFSAGGSGTEFTLTISSLQPDDFGTYYCQQYNSYSLTFGGGTKVEII
				no binding (tested: 75 pM sIL-6R)	binds	300 nM	no binding (tested: 100 nM)	1.9 nM	0.57 nM	TRU(X6T)-1019 (Fc fusion) EVQLLESGGGLVQPGGSLRLSCAASGFTFSWYLMHWVRQAPGKGLEWVSGIWPSGGHTLYADSVKGRFTISRDNSKNTLYLQMNSLRAEDTAVYYCAREPLLWFGELSYNWFDPWGQGTLVTVSSGGGGSGGGGSGGGGSQDIQMTQSPSSVSASVGDRVTITCRASQGISSWLAWYQQKPGKAPKLLIYAASSLQSGVPSRFSGSGSGTDFTLTISSLQPEDFATYYCQQANSFPLTFGGGTKVEIKTGEPKSSDKTHTCPPCPAPEAAGAPSVFLFPPKPKDTLMISRTPEVTCVVVDVSHEDPEVKFNWYVDGVEVHNAKTKPREEQYNSTYRVVSVLTVLHQDWLNGKAYACAVSNKALPAPIEKTISKAKGQPREPQVYTLPPSRDELTKNQVSLTCLVKGFYPSDIAVEWESNGQPENNYKTTPPVLDSDGSFFLYSKLTVDKSRWQQGNVFSCSVMHEALHNHYTQKSLSLSPGQRHNNSSLNTRTQKARHSPNSLPAQVAFTPYAPEPGSTCRLREYYDQTAQMCCSKCSPGQHAKVFCTKTSDTVCDSCEDSTYTQLWNWVPECLSCGSRCSSDQVETQACTREQNRICTCRPGWYCALSKQEGCRLCAPLRKCRPGFGVARPGTETSDVVCKPCAPGTFSNTTSSTDICRPHQICNVVAIPGNASMDAVCTSTSPTRSMAPGAVHLPQPVSTRSQHTQPTPEPSTAPSTSFLLPMGPSPPAEGSTGD
				no binding (tested: 75 pM sIL-6R)	binds	5.7 nM	no binding (tested: 100 nM)	17 nM	1 nM	TRU(XT6)-1019 (Fc fusion, Xceptor, TNFRSF1B ectodomain N-terminal, anti-IL6xR domain C-terminal) LPAQVAFTPYAPEPGSTCRLREYYDQTAQMCCSKCSPGQHAKVFCTKTSDTVCDSCEDSTYTQLWNWVPECLSCGSRCSSDQVETQACTREQNRICTCRPGWYCALSKQEGCRLCAPLRKCRPGFGVARPGTETSDVVCKPCAPGTFSNTTSSTDICRPHQICNVVAIPGNASMDAVCTSTSPTRSMAPGAVHLPQPVSTRSQHTQPTPEPSTAPSTSFLLPMGPSPPAEGSTGDTGEPKSSDKTHTCPPCPAPEAAGAPSVFLFPPKPKDTLMISRTPEVTCVVVDVSHEDPEVKFNWYVDGVEVHNAKTKPREEQYNSTYRVVSVLTVLHQDWLNGKAYACAVSNKALPAPIEKTISKAKGQPREPQVYTLPPSRDELTKNQVSLTCLVKGFYPSDIAVEWESNGQPENNYKTTPPVLDSDGSFFLYSKLTVDKSRWQQGNVFSCSVMHEALHNHYTQKSLSLSPGQRHNNSSLNTRTQKARHSPNSEVQLLESGGGLVQPGGSLRLSCAASGFTFSWYLMHWVRQAPGKGLEWVSGIWPSGGHTLYADSVKGRFTISRDNSKNTLYLQMNSLRAEDTAVYYCAREPLLWFGELSYNWFDPWGQGTLVTVSSGGGGSGGGGSGGGGSQDIQMTQSPSSVSASVGDRVTITCRASQGISSWLAWYQQKPGKAPKLLIYAASSLQSGVPSRFSGSGSGTDFTLTISSLQPEDFATYYCQQANSFPLTFGGGTKVEIK
